From the supplement of paper PMC9112550, “Optimization of the antimicrobial peptide Bac7 by deep mutational scanning” (BMC Biology, 2022)

Test system: Escherichia coli TOP10
Test: shrunken log2 fold change of peptide-encoding DNA abundance (4.5 h post-induction vs induction); higher = less antimicrobial activity (less host growth inhibition)
Settings: time post-induction: 4.5 h; library: site-saturation at positions 5, 18, 19, 20
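Further: peptides expressed intracellularly from a pBAD plasmid library in pooled LB shake-flask culture, induced with 0.3% L-arabinose, DNA abundance read by NGS, three biological replicates, DESeq2 with apeglm shrinkage.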

In the case of RRIRRRPPRLPRPRPRPKKHPRP, the “shrunken log2 fold change” value is reported as 0.197.
In the case of RRIRFRPPRLPRPRPRPWWDPRP, the “shrunken log2 fold change” value is reported as -0.0745.
With RRIRERPPRLPRPRPRPPKLPRP the “shrunken log2 fold change” value was -0.0377.
RRIRDRPPRLPRPRPRPLTVPRP was tested, and the “shrunken log2 fold change” value was -0.102.
For RRIRRRPPRLPRPRPRPIYMPRP, the “shrunken log2 fold change” value was -0.138.
For RRIRSRPPRLPRPRPRPDKHPRP, the “shrunken log2 fold change” value was -0.402.
RRIRFRPPRLPRPRPRPPIIPRP was tested, and the “shrunken log2 fold change” value was 0.92.
RRIRDRPPRLPRPRPRPFGAPRP was tested, and the “shrunken log2 fold change” value was 0.191.
With RRIRNRPPRLPRPRPRPKCPPRP the “shrunken log2 fold change” value was -0.124.
With RRIRKRPPRLPRPRPRPSHDPRP the “shrunken log2 fold change” value was -0.203.
With RRIRARPPRLPRPRPRPSVWPRP the “shrunken log2 fold change” value was -0.0231.
In the case of RRIRKRPPRLPRPRPRPGCWPRP, the “shrunken log2 fold change” value is reported as 0.466.
For RRIRSRPPRLPRPRPRPSREPRP, the “shrunken log2 fold change” value was -0.173.
In the case of RRIRSRPPRLPRPRPRPPMYPRP, the “shrunken log2 fold change” value is reported as -0.549.
For RRIRRRPPRLPRPRPRPFLRPRP, the “shrunken log2 fold change” value was 0.382.
With RRIRCRPPRLPRPRPRPAKKPRP the “shrunken log2 fold change” value was 0.00097.
RRIRTRPPRLPRPRPRPRKRPRP was tested, and the “shrunken log2 fold change” value was 0.152.
RRIRNRPPRLPRPRPRPNCTPRP was tested, and the “shrunken log2 fold change” value was -0.191.
With RRIRGRPPRLPRPRPRPSRNPRP the “shrunken log2 fold change” value was 0.0365.
In the case of RRIRARPPRLPRPRPRPKVYPRP, the “shrunken log2 fold change” value is reported as -0.0122.
With RRIRVRPPRLPRPRPRPSAYPRP the “shrunken log2 fold change” value was -0.34.
With RRIRARPPRLPRPRPRPHCKPRP the “shrunken log2 fold change” value was 0.0852.
RRIRWRPPRLPRPRPRPGDNPRP was tested, and the “shrunken log2 fold change” value was 0.106.
For RRIRLRPPRLPRPRPRPRATPRP, the “shrunken log2 fold change” value was 0.228.
For RRIRGRPPRLPRPRPRPTMLPRP, the “shrunken log2 fold change” value was 0.52.
With RRIRMRPPRLPRPRPRPPGGPRP the “shrunken log2 fold change” value was 1.15.
With RRIRQRPPRLPRPRPRPAWLPRP the “shrunken log2 fold change” value was -0.123.
With RRIRMRPPRLPRPRPRPEGVPRP the “shrunken log2 fold change” value was 3.21.
With RRIRHRPPRLPRPRPRPEMEPRP the “shrunken log2 fold change” value was -0.108.
For RRIRNRPPRLPRPRPRPMKSPRP, the “shrunken log2 fold change” value was -0.106.
RRIRWRPPRLPRPRPRPLLTPRP was tested, and the “shrunken log2 fold change” value was 0.324.
With RRIRFRPPRLPRPRPRPDKEPRP the “shrunken log2 fold change” value was -0.0026.
For RRIRVRPPRLPRPRPRPPIDPRP, the “shrunken log2 fold change” value was 0.0721.
With RRIRLRPPRLPRPRPRPSGDPRP the “shrunken log2 fold change” value was 0.0305.
For RRIRCRPPRLPRPRPRPAEPPRP, the “shrunken log2 fold change” value was 0.368.
RRIRMRPPRLPRPRPRPQTYPRP was tested, and the “shrunken log2 fold change” value was 0.144.
In the case of RRIRDRPPRLPRPRPRPRCNPRP, the “shrunken log2 fold change” value is reported as -0.0439.
RRIRLRPPRLPRPRPRPTQDPRP was tested, and the “shrunken log2 fold change” value was 0.488.
RRIRLRPPRLPRPRPRPDGQPRP was tested, and the “shrunken log2 fold change” value was 0.00145.
With RRIRCRPPRLPRPRPRPHVQPRP the “shrunken log2 fold change” value was -0.224.
RRIRQRPPRLPRPRPRPQGDPRP was tested, and the “shrunken log2 fold change” value was -0.00865.
With RRIRRRPPRLPRPRPRPCKCPRP the “shrunken log2 fold change” value was -0.01.
For RRIRVRPPRLPRPRPRPEIYPRP, the “shrunken log2 fold change” value was -0.348.
In the case of RRIRFRPPRLPRPRPRPHVVPRP, the “shrunken log2 fold change” value is reported as -0.0249.
In the case of RRIRMRPPRLPRPRPRPRFGPRP, the “shrunken log2 fold change” value is reported as 0.853.
In the case of RRIRSRPPRLPRPRPRPVNHPRP, the “shrunken log2 fold change” value is reported as -0.462.
RRIRYRPPRLPRPRPRPVIEPRP was tested, and the “shrunken log2 fold change” value was -0.424.
RRIRRRPPRLPRPRPRPDNPPRP was tested, and the “shrunken log2 fold change” value was -0.582.
In the case of RRIRDRPPRLPRPRPRPRMLPRP, the “shrunken log2 fold change” value is reported as 0.229.
RRIRARPPRLPRPRPRPITMPRP was tested, and the “shrunken log2 fold change” value was -0.231.
With RRIRQRPPRLPRPRPRPETNPRP the “shrunken log2 fold change” value was 0.0137.
With RRIRQRPPRLPRPRPRPPYCPRP the “shrunken log2 fold change” value was 0.0161.
For RRIRQRPPRLPRPRPRPNIEPRP, the “shrunken log2 fold change” value was -0.0328.
For RRIRERPPRLPRPRPRPCAQPRP, the “shrunken log2 fold change” value was -0.00638.
In the case of RRIRDRPPRLPRPRPRPATPPRP, the “shrunken log2 fold change” value is reported as 0.276.
RRIRSRPPRLPRPRPRPDGWPRP was tested, and the “shrunken log2 fold change” value was 0.278.
In the case of RRIRHRPPRLPRPRPRPGWMPRP, the “shrunken log2 fold change” value is reported as 0.0172.
In the case of RRIRLRPPRLPRPRPRPDVNPRP, the “shrunken log2 fold change” value is reported as -0.137.
With RRIRTRPPRLPRPRPRPKYSPRP the “shrunken log2 fold change” value was -0.413.
With RRIRSRPPRLPRPRPRPAFSPRP the “shrunken log2 fold change” value was -0.145.
For RRIRYRPPRLPRPRPRPIGGPRP, the “shrunken log2 fold change” value was -0.4.
RRIRPRPPRLPRPRPRPCNSPRP was tested, and the “shrunken log2 fold change” value was -0.276.
For RRIRRRPPRLPRPRPRPLITPRP, the “shrunken log2 fold change” value was -0.0767.
In the case of RRIRARPPRLPRPRPRPHGSPRP, the “shrunken log2 fold change” value is reported as -0.071.
In the case of RRIRQRPPRLPRPRPRPSRPPRP, the “shrunken log2 fold change” value is reported as 0.37.
In the case of RRIRLRPPRLPRPRPRPYAVPRP, the “shrunken log2 fold change” value is reported as 0.00157.
In the case of RRIRIRPPRLPRPRPRPFYEPRP, the “shrunken log2 fold change” value is reported as -0.231.
For RRIRTRPPRLPRPRPRPVLSPRP, the “shrunken log2 fold change” value was -0.328.
For RRIRYRPPRLPRPRPRPHGIPRP, the “shrunken log2 fold change” value was 0.0191.
For RRIRSRPPRLPRPRPRPISGPRP, the “shrunken log2 fold change” value was -0.176.
RRIRCRPPRLPRPRPRPTQTPRP was tested, and the “shrunken log2 fold change” value was 0.286.
For RRIRQRPPRLPRPRPRPPWWPRP, the “shrunken log2 fold change” value was 0.498.
In the case of RRIRDRPPRLPRPRPRPMSHPRP, the “shrunken log2 fold change” value is reported as -0.046.
For RRIRPRPPRLPRPRPRPSFVPRP, the “shrunken log2 fold change” value was -0.436.
With RRIRLRPPRLPRPRPRPRMYPRP the “shrunken log2 fold change” value was -0.166.
With RRIRCRPPRLPRPRPRPHKQPRP the “shrunken log2 fold change” value was -0.0354.
In the case of RRIRSRPPRLPRPRPRPEKCPRP, the “shrunken log2 fold change” value is reported as -0.0875.
In the case of RRIRARPPRLPRPRPRPYIKPRP, the “shrunken log2 fold change” value is reported as -1.17.
RRIRHRPPRLPRPRPRPNYFPRP was tested, and the “shrunken log2 fold change” value was -0.125.
In the case of RRIRNRPPRLPRPRPRPYKSPRP, the “shrunken log2 fold change” value is reported as -0.00822.
RRIRRRPPRLPRPRPRPVNRPRP was tested, and the “shrunken log2 fold change” value was -0.0157.
With RRIRTRPPRLPRPRPRPRFNPRP the “shrunken log2 fold change” value was -0.286.
With RRIRLRPPRLPRPRPRPPREPRP the “shrunken log2 fold change” value was 0.544.
With RRIRVRPPRLPRPRPRPVWKPRP the “shrunken log2 fold change” value was 0.0859.
With RRIRLRPPRLPRPRPRPLLRPRP the “shrunken log2 fold change” value was 0.196.
With RRIRCRPPRLPRPRPRPQKTPRP the “shrunken log2 fold change” value was -0.162.
With RRIRCRPPRLPRPRPRPMCAPRP the “shrunken log2 fold change” value was 0.0886.
RRIRNRPPRLPRPRPRPWGCPRP was tested, and the “shrunken log2 fold change” value was -0.00572.
With RRIRFRPPRLPRPRPRPQHEPRP the “shrunken log2 fold change” value was -0.25.
With RRIRFRPPRLPRPRPRPHHQPRP the “shrunken log2 fold change” value was -0.963.
RRIRQRPPRLPRPRPRPFHCPRP was tested, and the “shrunken log2 fold change” value was -0.192.
For RRIRTRPPRLPRPRPRPAKQPRP, the “shrunken log2 fold change” value was -0.0125.
For RRIRGRPPRLPRPRPRPYGLPRP, the “shrunken log2 fold change” value was 0.0992.
With RRIRGRPPRLPRPRPRPNYNPRP the “shrunken log2 fold change” value was -0.262.
With RRIRLRPPRLPRPRPRPCQNPRP the “shrunken log2 fold change” value was -0.0404.
In the case of RRIRQRPPRLPRPRPRPPWKPRP, the “shrunken log2 fold change” value is reported as 0.467.
For RRIRIRPPRLPRPRPRPLYHPRP, the “shrunken log2 fold change” value was -0.761.
In the case of RRIRRRPPRLPRPRPRPRHFPRP, the “shrunken log2 fold change” value is reported as -0.156.
RRIRYRPPRLPRPRPRPFCQPRP was tested, and the “shrunken log2 fold change” value was 0.0155.
RRIRHRPPRLPRPRPRPDTAPRP was tested, and the “shrunken log2 fold change” value was 0.0194.
RRIRIRPPRLPRPRPRPCKHPRP was tested, and the “shrunken log2 fold change” value was -0.118.
In the case of RRIRYRPPRLPRPRPRPAAGPRP, the “shrunken log2 fold change” value is reported as -0.197.
For RRIRYRPPRLPRPRPRPYYCPRP, the “shrunken log2 fold change” value was 0.00489.
In the case of RRIRYRPPRLPRPRPRPSDFPRP, the “shrunken log2 fold change” value is reported as -1.03.
RRIRMRPPRLPRPRPRPAWQPRP was tested, and the “shrunken log2 fold change” value was 0.197.
RRIRSRPPRLPRPRPRPDANPRP was tested, and the “shrunken log2 fold change” value was 0.183.
In the case of RRIRLRPPRLPRPRPRPNMHPRP, the “shrunken log2 fold change” value is reported as -0.565.
RRIRDRPPRLPRPRPRPSAMPRP was tested, and the “shrunken log2 fold change” value was 0.36.
In the case of RRIRFRPPRLPRPRPRPSNFPRP, the “shrunken log2 fold change” value is reported as -0.129.
